Data taken from US20250019422A1 (MAX PLANCK GESELLSCHAFT ZUR F RDERUNG DER WISSENSCHAFTEN E V, published 2025).
Where two headings read alike, the source gives them in different places.

B1: Re6H06 (VHH)
VHH: QVQLVESGGGLVQPGGSLRLSCAASGVTLDYYAIGWFRQAPGKEREGVSCTSSSDGSTYYADSVKGRFTISRDNAKNTVYLQMNSLKPEDTGVYYCAVVPQTYYGGKYYSQCTANGMDYWGKGTLVTVSS
B2: Re32D03 (VHH)
VHH: QVQLVESGGGLVQPGGSLRLSCAISGITLDYYAVGWFLQAPGKEREGISCMRNWDGRTVYAPSVKGRFTISSDNAKKMVYLEMDNLKSEDTGVYYCAAGPLPPGISCRIPTPLGYDDWGQGTQVTVSS
B3: Re5D06 (VHH)
VHH: QVQLVESGGGLVQPGGSLRLSCAASGITLDYYAIGWFRQAPGKEREGVSRIRSSDGSTNYADSVKGRFTMSRDNAKNTVYLQMNSLKPEDTAVYYCAYGPLTKYGSSWYWPYEYDYWGQGTQVTVSS
B4: Re9B09 (VHH)
VHH: QVQLVESGGGLVQPGGSLRLSCAASGFTLDYYAIGWFRQAPGKEREGVSRISSSDGSTDYADSVKGRFTISRDNAKNTVYLQMNSLKPEDTAVYYCATVPGTYYSGNWYYTWHPEAVDYWGKGTQVTVSS
notes: also called ReB09

Experiments:
B.1.617.2/Delta [1] = biological target: B.1.617.2/Delta
[2] = biological target: T1, RBD of the SARS-CoV-2 Omicron variant BA.2.75 (SARS-CoV-2 Omicron variant BA.2.75)
B.1.617.2/Delta [3] = biological target: B.1.617.2/Delta; remark: listed apart in the source
[4] = biological target: T1, RBD of the SARS-CoV-2 Omicron variant …; remark: listed apart in the source

Row | Binder | Kd (B.1.617.2/Delta [1]) [nM] | Kd [2] [nM] | Kd (B.1.617.2/Delta [3]) [nM] | Kd [4] [nM]
1 | B1 | 0.1 | ≥ 1000 | – | –
2 | B2 | – | – | ≤ 0.01 | 0.35
3 | B3 | 0.2 | – | – | –
4 | B4 | – | – | 0.3 | 2
